Test: yeast display, Sf9 membrane polyspecificity reagent, FACS + sequencing; frameworks hold sequencing errors
Procedure, shortened: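 After 36–48 hours of galactose induction, yeast (Saccharomyces cerevisiae BJ5465) displaying a synthetic nanobody library were stained at 4 °C for 1 hour with 10% biotinylated, detergent-solubilized Sf9 membrane reagent. Streptavidin microbeads enriched the stained cells before FACS sorting into low and high (top ~1%) gates on anti-HA and streptavidin fluorescence. Each clone's polyreactivity label reflects its gate of origin.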
With “QVQLVESAGGLVQAGGSLRLSCAASGRTLSNYAMGWYREAPGKERELVAVISQSGGRTYYADSVKGRFTISRDNAKNTVYLQLNSLKPEDTAVYYCNVDISWLRRKFDYWGQVTQVTVSS” the “polyreactivity (PSR sort gate)” value was “low polyreactivity”. With “QVQLVESAGGLVQAGGSLRLSCAASGSIFDAYAMGWYRQAPGKERELVAAIIARGGSTYYADSVKGRFTISRDNAKTTVYLQMISLKPEDTAVSYCNRLSRVRRYIYDYWGQGTQVTVSS” the “polyreactivity (PSR sort gate)” value was “high polyreactivity”. In the case of “QVQLVESAGGLVQAGGSLRLSCAASGSIFTYYAMGWYIQAPGKERELVAAISSDGGRTFYADSVKGRFTISRDNAKNTVYLQMNSLKPEDTAVYYCAAETNRFPGYGYWGQGTQVTVSS”, the “polyreactivity (PSR sort gate)” value is reported as “low polyreactivity”. For “QVQLVESAGGLVQAGGSLRLSCAASGSISAGNAMGWNRQAPGKERELVAAISGSGGSTYYADSVKGRFTISRYNAKNSVDLQMKSLKPEDTAVYYCAARGGYRLRYIPYVRYDYWGEGTQVTVSS”, the “polyreactivity (PSR sort gate)” value was “high polyreactivity”. With “QVQLVESAGGLVQAGGSLRLSCAASGSTFGPYAMGWYRQVPGKERELVAGISYGGGTTFYADSVKGRFTISRDNAKYTVYLQMNSLKPEDTAVYYCAATYRPNRYLEGYWGQGTQVTVSS” the “polyreactivity (PSR sort gate)” value was “high polyreactivity”. For “QVQLVESAGGLVQAGGSLRLSCAASGSTFLSYFMGWYRQAPGKERELVAAITGTGGRTYYADSVKGRFTISRDNAKNTVYLQMNSLKPEDSAVYYCTAYRKHGYDYWGQGTQVTVSS”, the “polyreactivity (PSR sort gate)” value was “high polyreactivity”. For “QVQLVESAGGLVQAGGSLRLSCAASGSTFRLNTMGWYRQEPGNERELVAGISYSGGSTYYADSVNGRFTISRDNAKNTVYLQMNSLKPEDTAVYYCNKRAWFSSKDDYWGQGTQVTVSS”, the “polyreactivity (PSR sort gate)” value was “high polyreactivity”. With “QVQLVESAGGLVQAGGSLRLSCAASGSTFVTNVMGWYRQAPGKERELVAAISYSGGNTYFEDSVKGRFTISRDYAKNTVYLQMNSLKPEDTAVYSCAASYKPFKKMGYWGQGTQVTVSS” the “polyreactivity (PSR sort gate)” value was “high polyreactivity”. With “QVQLVESAGGLVQAGGSLRLSCAASGYTFPYYTMGWYRQAPGKERELVATITRRGDSTYYADSVKGRFTISRDNAKNTVYLQMNSLKPEDTAVYYCNTASYGRHQFRKSSKMDYWGQGTQVTVSS” the “polyreactivity (PSR sort gate)” value was “high polyreactivity”. For “QVQLVESAGGLVQAGGSLRLSCAASGYTFVNYAMGWYRQAPGKERELVAAISRSGGSTYYADSVKGRFTISRDHAKNTVYLQMNSLKPEDTAVYYCAKVVQGDHPYDYWGQGTQVTVSS”, the “polyreactivity (PSR sort gate)” value was “high polyreactivity”. For “QVQLVESAGGLVQAGGSLRLSCAASGYTSSLNAMGWYRQAPGKERELVARITTDGTSTYYADSVKGRFTISRDNAKNTVYLQMNSLKPEDTAVYYCNKRSHLYGNTPYYYWGQGTQVTVSS”, the “polyreactivity (PSR sort gate)” value was “low polyreactivity”. With “QVQLVESAGGLVQAGGSLRLSCAPSGSILASNAMGCYRQAPGKDRELVSAITTSGGSTYYADYVKGRFTISLDNAKNTVYLQMNSLKPEDTAVYYCNAEYSRGRWLRYGYWGQGTQVTVSS” the “polyreactivity (PSR sort gate)” value was “high polyreactivity”. In the case of “QVQLVESAGGLVQAGGSLRLSCSASGLTFVPNAMGWYRQAPGKERELVATISSSGGRTTYADSVKGRFTISRDKAKNTVYLQMNSLKPEDTAVYYCADQGYWTGYDYWGQGTQVTVSS”, the “polyreactivity (PSR sort gate)” value is reported as “high polyreactivity”. With “QVQLVESAGGLVQAGGSLRLSCSASGTIIWFYAMGWYRQAPGKERELVAAITRSGGSTYYADSVKGRFTISRDNAKNTVYLQMNSLKPEDTAVYYCAAGTVDYRGYFEMYYWGQGTQVTVSS” the “polyreactivity (PSR sort gate)” value was “low polyreactivity”. In the case of “QVQLVESAGGLVQAGGSLRLSSAASAFTFYSNAMGWYRHAPGKEREFVAAGSTYYADSVKGRFTISRDNAKNTVYLQMNSLKPEDTAVYYCAADSYDVSRRYEYEYWGEGTQVTVSS”, the “polyreactivity (PSR sort gate)” value is reported as “low polyreactivity”. With “QVQLVESAGGLVQAGGSLRLTCDASGSTFGYYAMGLYRQAPGKEMELVAAITSNDGSTNYADSVKGRFTISRDNAKNTVYLQMNSLKPEDTAVYYCNARYFVAVISSFDYWGQGTQVTVSS” the “polyreactivity (PSR sort gate)” value was “low polyreactivity”. With “QVQLVESAGGLVQAGGSLSLSCAASGRTFIRHAMGRDRQAPGKERELVAAINSGGITNYADSVKGRFTISRVNAKNTVFLKRNSLKPEDTAVYYCAAYKPWYVGLYPWYDYWGQGTQVTVSW” the “polyreactivity (PSR sort gate)” value was “low polyreactivity”. For “QVQLVESAGGLVQAGGSLSLSCAASGSMFIYNAMGWYRQAPGKERELVATISSGGSTTYADSVKGRFTISRDNAKNTVYLQMNSLKPEDTAVYYCATDDPPDQYFYLGYYYWGANDYWGQGTQVTVSS”, the “polyreactivity (PSR sort gate)” value was “low polyreactivity”. With “QVQLVESAGGLVQAGGSLSLSCAATGSILQEYAMGSYRQAPGTERELVAAITRRGGNTYYADSVKGRFTISRDNAKNTVYLQMNSLKPEDTAVYYCAAPHGKYSWQYEYWGQGTQVTVSS” the “polyreactivity (PSR sort gate)” value was “low polyreactivity”. For “QVQLVESAGGLVQAGRSLRLSCAASGYTFAKYTKGWYREATGKERELVAAISRGGSTTYADSVKGRFTISRDNAKNTVYLQMHSLKPEDTAVYYCAADVHRVVLEYDYWGQGTQVTVSS”, the “polyreactivity (PSR sort gate)” value was “low polyreactivity”. For “QVQLVESAGGLVQAGVSLRLSCAASGFTFGWYAMGWYRQAPGKERELVATISWSGSSTYYADSVKGRFTISRDNAKNTVYVQMNSLKPDDTAVYYCNAVYGRFVVLRYDYWGQGTQVTVSS”, the “polyreactivity (PSR sort gate)” value was “high polyreactivity”. In the case of “QVQLVESAGGLVQAVGSHRLSSATSGSIFSGNSMGWYRQAPGTQSELVADISQNGGRTYYADSVKGRFTISRDNAKYTVYLQINSLKPEDTGVYYCAARGWYRYGSVYYIGDYWGQGTQGTVSS”, the “polyreactivity (PSR sort gate)” value is reported as “high polyreactivity”. In the case of “QVQLVESARGLVQAGGSLRLSCAASGFTFYKYAMGWYRQAPGKETELVDAISSGGRTNYADSVKGRFTISRDNAMNTVYLHMNSLNPEDTAVYFCAADRSYRSGYNYWGQGTQVTVSS”, the “polyreactivity (PSR sort gate)” value is reported as “high polyreactivity”. In the case of “QVQLVESAVGLVQAGGSLRLSCAASGILFARYAMGWYRQAPGKERELVAVISGSGGSTYYADSVKGRFTISRDNAKNTVYLQMNSLKPEDTAVYYCNAEFESGHDLDWYDYWGQGTQVTVSS”, the “polyreactivity (PSR sort gate)” value is reported as “low polyreactivity”. In the case of “QVQLVESCGCLVQAGGSLRLSCAASGIIFFPYAMGWYRQAPGKEREFVAAITSRRGSTYYADSVKGRFTISRDNPKNTVYLQMNILKPEDTAVYYCAAAWCAPSRFFSAFDYWGQGTQVTVSS”, the “polyreactivity (PSR sort gate)” value is reported as “low polyreactivity”. For “QVQLVESCGGLDQAGGSLRLSCAASGFMFHLYGMGWYRQAPGKEMEWVAAISSGGRTYYADSVKGRFTISRDNAKNTVYLQMNSLKPEDTAVYYCAVYVAYLYSYYYWGQGTQETVSS”, the “polyreactivity (PSR sort gate)” value was “low polyreactivity”. For “QVQLVESCGGLVQAGASLRLSCAASGRTFSENAMGWYRQARGKEREFVAGNSFSGDGRTYYADSVKGRFTISRDNAKNTVYLQMNSLKPEDTAVYYCAAPHRSRTHELDYWGQGTQVTVSS”, the “polyreactivity (PSR sort gate)” value was “low polyreactivity”. In the case of “QVQLVESCGGLVQAGGSLRLSCAASGFIFDWYAMGWYRQAPGKVRELVAAITTDGGGTYYADSVKGRFTISRDNAKNNVYLQMNSLKPEDTAVYDCAADGVSTSPQYDYWGQGTQVTVSS”, the “polyreactivity (PSR sort gate)” value is reported as “high polyreactivity”. For “QVQLVESCGGLVQAGGSLRLSCAASGFIFTYYVMGWYRQAPGKERELVATISISDGTTYADSVKGRFTISRDNAKNTVYLQMNSLKPEDTAVYYCAADNSFTDNYWGQGTQVTVSS”, the “polyreactivity (PSR sort gate)” value was “low polyreactivity”. With “QVQLVESCGGLVQAGGSLRLSCAASGGTFGPYAMAWYRQAPGKEREFVARITGSGTRTYYADSVKGRFTISRDNAKNTVYLQMNSLKPEDTAVYYCATSHSRGSRGHDYWGQGTQVTVSS” the “polyreactivity (PSR sort gate)” value was “low polyreactivity”.
